Results published in publication doi:10.1101/2024.08.28.610080.

What was measured:
Assay in all cases: EMSA
[1] = biological target: POLγA WT (human, UniProt P54098 26-1239)
[2] = biological target: POLγA WT;POLγB (processivity subunit, B2) (human;human, UniProt P54098;Q9UHN1 26-1239;26-485, |)
[3] = biological target: POLγA Y951N;POLγB (processivity subunit, B2) (human;human, UniProt P54098;Q9UHN1 26-1239;26-485, Y951N|)
[4] = biological target: POLγA Y951N (human, UniProt P54098 26-1239, Y951N)

Measured: binding result

Chain of POLγA Y951N;POLγB (processivity subunit, B2) (P54098 26-1239 Y951N, chain 1 of 2): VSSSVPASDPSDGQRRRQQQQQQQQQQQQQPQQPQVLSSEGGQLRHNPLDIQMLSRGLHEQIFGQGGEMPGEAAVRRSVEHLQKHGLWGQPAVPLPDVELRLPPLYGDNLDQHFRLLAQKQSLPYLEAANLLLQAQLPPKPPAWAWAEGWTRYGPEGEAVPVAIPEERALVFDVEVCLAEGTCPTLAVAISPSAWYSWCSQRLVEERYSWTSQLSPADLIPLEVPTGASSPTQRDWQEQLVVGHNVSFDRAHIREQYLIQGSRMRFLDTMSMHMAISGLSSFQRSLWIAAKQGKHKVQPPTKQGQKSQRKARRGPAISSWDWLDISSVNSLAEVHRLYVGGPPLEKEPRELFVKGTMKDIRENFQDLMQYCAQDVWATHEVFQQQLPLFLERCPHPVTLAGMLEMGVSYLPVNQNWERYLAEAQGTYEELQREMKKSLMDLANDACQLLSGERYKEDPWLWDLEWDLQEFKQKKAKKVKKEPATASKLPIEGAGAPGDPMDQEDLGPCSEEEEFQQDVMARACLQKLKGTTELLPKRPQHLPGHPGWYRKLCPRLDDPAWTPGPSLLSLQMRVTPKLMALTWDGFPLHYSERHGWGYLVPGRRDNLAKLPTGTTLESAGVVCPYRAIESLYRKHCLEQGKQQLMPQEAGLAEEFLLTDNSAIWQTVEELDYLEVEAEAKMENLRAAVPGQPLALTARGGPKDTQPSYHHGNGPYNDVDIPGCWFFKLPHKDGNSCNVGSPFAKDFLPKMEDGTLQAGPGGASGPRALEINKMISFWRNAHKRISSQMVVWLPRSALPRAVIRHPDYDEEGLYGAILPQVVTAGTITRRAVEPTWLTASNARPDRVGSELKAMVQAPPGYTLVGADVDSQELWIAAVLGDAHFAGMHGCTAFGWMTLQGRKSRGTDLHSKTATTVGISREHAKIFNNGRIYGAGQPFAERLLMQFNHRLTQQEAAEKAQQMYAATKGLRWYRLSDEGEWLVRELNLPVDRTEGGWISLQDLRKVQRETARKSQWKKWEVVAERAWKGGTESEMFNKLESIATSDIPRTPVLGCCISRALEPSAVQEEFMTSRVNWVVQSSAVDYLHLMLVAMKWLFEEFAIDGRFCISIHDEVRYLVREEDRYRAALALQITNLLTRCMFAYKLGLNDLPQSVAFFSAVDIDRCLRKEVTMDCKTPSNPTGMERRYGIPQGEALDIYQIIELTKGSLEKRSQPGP
Chain of POLγA Y951N;POLγB (processivity subunit, B2) (Q9UHN1 26-485, chain 2 of 2): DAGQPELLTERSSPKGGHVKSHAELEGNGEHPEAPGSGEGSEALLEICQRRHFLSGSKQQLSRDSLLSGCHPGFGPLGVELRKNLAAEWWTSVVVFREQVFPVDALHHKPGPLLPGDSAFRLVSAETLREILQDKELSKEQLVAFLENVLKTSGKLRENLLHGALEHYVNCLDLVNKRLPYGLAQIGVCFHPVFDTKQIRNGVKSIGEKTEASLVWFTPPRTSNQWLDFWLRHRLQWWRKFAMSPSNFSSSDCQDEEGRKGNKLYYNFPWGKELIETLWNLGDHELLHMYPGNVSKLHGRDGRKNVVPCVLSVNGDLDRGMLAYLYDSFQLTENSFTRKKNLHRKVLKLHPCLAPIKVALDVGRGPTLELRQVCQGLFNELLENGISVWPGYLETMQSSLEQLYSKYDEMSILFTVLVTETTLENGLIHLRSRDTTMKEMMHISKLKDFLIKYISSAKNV
Chain of POLγA Y951N (P54098 26-1239 Y951N): as the sequence (P54098 26-1239 Y951N, chain 1 of 2) above
Chain of POLγA WT;POLγB (processivity subunit, B2) (P54098 26-1239, chain 1 of 2): as the sequence (P54098 26-1239 Y951N, chain 1 of 2) above, with N926Y counted along it
Chain of POLγA WT;POLγB (processivity subunit, B2) (Q9UHN1 26-485, chain 2 of 2): as the sequence (Q9UHN1 26-485, chain 2 of 2) above
Chain of POLγA WT (P54098 26-1239): as the sequence (P54098 26-1239 Y951N, chain 1 of 2) above, with N926Y counted along it

B1: 25/40 nt TET-ddC primer/template (EMSA) (dsDNA)
DNA 1: GCAGTGAATTTCTGCAGGTCGACTC
DNA 2: GCGGGTTGACCTTTGGAGTCGACCTGCAGAAATTCACTGC
modifications: 3'-ddC on both strands
binds: all assays above
